According to patent US5789547:

Biological target: human insulin-like growth factor-I (IGF-I) (human)

yield of correctly folded (native) protein by RP-HPLC after cofolding, against each protein refolded alone: 99.6%
Substance: human insulin-like growth factor binding protein-3 (IGFBP-3), recombinant, from pDJ12833 (from UniProt P17936)
